The values below come from PMC6160157.

Assay [1] addresses HA tri-stalk protein (HA amino acids 403-474 of the pandemic strain A/Luxembourg/43/2009(H1N1)) (Influenza A virus A/Luxembourg/43/2009(H1N1)). Kind of assay: SEC. (SEC sorts molecules by how far they enter the pores of the column.)
Assay [2] has the same target. Kind of assay: crystal structure.

Usually stoichiometry N stands for the number of molecules, sites or subunits per partner or assembly. Consider “HA tri-stalk protein (HA amino acids 403-474 of the pandemic strain A/Luxembourg/43/2009(H1N1)) (domain or fragment)”, for which the stoichiometry N in assay [1] and in assay [2] was 3 in each case.
